Assay results: patent US20040191860A1

Assays:
[1] = target: r150, 150 kDa GPI-anchored TGF-β1 binding protein (membrane anchored form) (human) (UniProt Q6YHK3); assay: competition of unlabeled TGF-β3 with 125I-TGF-β1 on keratinocytes, affinity cross-link labeling, densitometry
[2] = target: Transforming growth factor-β1 (UniProt P01137); assay: 125I-TGF-β1 (50 pM) binding to MvLu1 cells with concentrated supernatant of untreated HaCaT cells (r150 released by an endogenous phospholipase), dose 1
Transforming growth factor-β1, sequence (P01137 279-390 limits assumed): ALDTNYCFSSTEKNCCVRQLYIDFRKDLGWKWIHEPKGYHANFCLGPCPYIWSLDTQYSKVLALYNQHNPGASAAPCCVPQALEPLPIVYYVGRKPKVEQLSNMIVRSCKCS

[3] = target: Transforming growth factor-β1 (UniProt P01137); assay: 125I-TGF-β1 (50 pM) binding to MvLu1 cells with concentrated supernatant of PIPLC treated HaCaT cells, dose 1 (one T-25 flask, about 1x10^6 cells)
[4] = target: Transforming growth factor-β1 (UniProt P01137); assay: 125I-TGF-β1 (50 pM) binding to MvLu1 cells with concentrated supernatant of PIPLC treated HaCaT cells, dose 2
[5] = target: Transforming growth factor-β1 (UniProt P01137); assay: 125I-TGF-β1 (50 pM) binding to MvLu1 cells with concentrated supernatant of untreated HaCaT cells (r150 released by an endogenous phospholipase), dose 2

r150, 150 kDa GPI-anchored TGF-β1 binding protein (membrane anchored form) (human), sequence (Q6YHK3 other isoform, or with tags, fused parts or gaps limits assumed): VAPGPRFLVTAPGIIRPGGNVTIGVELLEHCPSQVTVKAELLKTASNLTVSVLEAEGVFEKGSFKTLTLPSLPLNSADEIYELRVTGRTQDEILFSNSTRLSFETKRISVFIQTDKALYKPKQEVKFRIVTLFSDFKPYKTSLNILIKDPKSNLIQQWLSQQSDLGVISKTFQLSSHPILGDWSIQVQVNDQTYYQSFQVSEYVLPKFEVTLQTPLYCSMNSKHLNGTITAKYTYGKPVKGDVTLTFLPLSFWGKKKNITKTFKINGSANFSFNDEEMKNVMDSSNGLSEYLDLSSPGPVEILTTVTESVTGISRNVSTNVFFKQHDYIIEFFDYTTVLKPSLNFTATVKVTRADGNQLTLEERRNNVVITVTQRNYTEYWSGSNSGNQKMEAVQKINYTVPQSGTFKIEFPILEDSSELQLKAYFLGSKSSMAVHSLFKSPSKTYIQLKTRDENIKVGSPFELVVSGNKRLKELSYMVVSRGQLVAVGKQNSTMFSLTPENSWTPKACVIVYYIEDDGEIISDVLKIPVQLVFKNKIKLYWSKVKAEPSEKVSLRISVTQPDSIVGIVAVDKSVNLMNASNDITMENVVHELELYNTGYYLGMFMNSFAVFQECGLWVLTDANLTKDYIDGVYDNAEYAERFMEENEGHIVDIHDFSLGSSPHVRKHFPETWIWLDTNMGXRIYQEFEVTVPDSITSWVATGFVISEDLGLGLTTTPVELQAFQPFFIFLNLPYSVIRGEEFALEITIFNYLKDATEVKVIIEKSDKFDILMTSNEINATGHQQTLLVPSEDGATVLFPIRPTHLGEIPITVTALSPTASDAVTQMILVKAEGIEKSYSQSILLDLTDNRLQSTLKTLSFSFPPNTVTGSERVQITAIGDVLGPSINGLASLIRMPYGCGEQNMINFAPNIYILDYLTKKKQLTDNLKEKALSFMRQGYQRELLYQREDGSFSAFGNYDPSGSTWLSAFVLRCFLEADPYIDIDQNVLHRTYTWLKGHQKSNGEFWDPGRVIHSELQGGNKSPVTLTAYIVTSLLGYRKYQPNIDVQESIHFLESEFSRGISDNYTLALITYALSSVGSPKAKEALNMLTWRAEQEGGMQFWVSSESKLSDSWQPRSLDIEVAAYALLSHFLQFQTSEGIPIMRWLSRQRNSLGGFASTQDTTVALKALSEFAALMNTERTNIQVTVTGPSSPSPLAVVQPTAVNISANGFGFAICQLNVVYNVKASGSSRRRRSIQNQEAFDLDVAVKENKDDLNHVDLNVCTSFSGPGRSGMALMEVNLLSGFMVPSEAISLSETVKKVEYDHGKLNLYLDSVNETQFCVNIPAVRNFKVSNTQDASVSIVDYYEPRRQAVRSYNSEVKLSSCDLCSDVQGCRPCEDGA

Row | ratio of the concentration for half-maximal inhibition of 125I-TGF-β1 binding, r150 against the types I or II receptors [1] | percent inhibition of 125I-TGF-β1 binding to MvLu1 cells [2] | percent inhibition of 125I-TGF-β1 binding to MvLu1 cells [3] | percent inhibition of 125I-TGF-β1 binding to MvLu1 cells [4] | percent inhibition of 125I-TGF-β1 binding to MvLu1 cells [5] | Substance
1 | 6 fold |  |  |  |  | Transforming growth factor-β3 (from UniProt P10600 301-412) (ligand)
2 |  | 15% | 33% | 50% | 31% | soluble r150 (released from the cell surface by PIPLC or by an endogenous phospholipase C) (from UniProt Q6YHK3 22-1420) (receptor)
